Assay results as given in patent publication US20190225703A1 (INNATE PHARMA, published 2019).

Tests used:
[1] = target: T1, cynomolgus CD73 expressed at the cell surface (cynomolgus); test: flow cytometry titration on cynomolgus-CD73-expressing cell line
T1 construct: whole, on cells; Recombinant cell line expressing cynomolgus CD73; also called cynoCD73
Procedure: (§1) 10⁵ cells resuspended in PBS/0.2% BSA/0.02% NaN3 (named “staining buffer”) are distributed into round bottom 96W-microplates. Dose-range of anti-CD73 antibodies was added to the plates and cells are incubated for 45 min at 4° C. Cells were washed three times in staining buffer by spinning plates at 400 g for 3 min at 4° C. PE-coupled goat anti-mouse or goat anti-human IgG Fc fragment secondary antibodies (Beckman Coulter) diluted in staining buffer were added to the cells and plates are incubated for 30 additional minutes at 4° C. Cells were washed three times as described above and analyzed on an Accury C6 flow cytometer equipped with an HTFC plate reader.
(§2) Median of fluorescence vs. antibodies concentration was plotted on graphs and EC50 is calculated using GraphPad Prism program.

[2] = target: T2, mouse CD73 expressed at the cell surface (mouse, UniProt Q61503 29-551); test: flow cytometry titration on a cell line expressing mouse CD73
T2 construct: whole, on cells; Recombinant cell line expressing mouse CD73; also called moCD73
T2 sequence (looked up): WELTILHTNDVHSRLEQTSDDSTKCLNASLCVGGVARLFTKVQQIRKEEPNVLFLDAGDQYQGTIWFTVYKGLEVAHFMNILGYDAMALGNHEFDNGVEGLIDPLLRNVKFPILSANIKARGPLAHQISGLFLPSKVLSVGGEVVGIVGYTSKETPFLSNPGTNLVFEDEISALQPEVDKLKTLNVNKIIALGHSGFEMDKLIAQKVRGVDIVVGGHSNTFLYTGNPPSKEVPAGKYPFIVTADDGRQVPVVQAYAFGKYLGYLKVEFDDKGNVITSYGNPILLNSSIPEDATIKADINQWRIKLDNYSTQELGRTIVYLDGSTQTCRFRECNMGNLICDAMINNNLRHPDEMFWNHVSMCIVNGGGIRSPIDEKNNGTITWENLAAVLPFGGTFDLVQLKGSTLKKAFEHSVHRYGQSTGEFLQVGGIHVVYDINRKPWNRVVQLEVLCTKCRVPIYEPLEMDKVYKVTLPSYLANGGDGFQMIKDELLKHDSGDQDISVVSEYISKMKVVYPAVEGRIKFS
Procedure: as §1, §2

[3] = target: T3, human CD73 (ecto-5'-nucleotidase) expressed at the cell surface (human, UniProt P21589 27-549); test: flow cytometry titration on HEK-293T cells transfected with wild type human CD73
T3 construct: Used for huCD73-expressing recombinant cell lines, MDA-MB-231 cells (endogenous CD73), HEK-293T cells with wild type CD73, and primary T and B cells; also called huCD73; wild type CD73
T3 sequence: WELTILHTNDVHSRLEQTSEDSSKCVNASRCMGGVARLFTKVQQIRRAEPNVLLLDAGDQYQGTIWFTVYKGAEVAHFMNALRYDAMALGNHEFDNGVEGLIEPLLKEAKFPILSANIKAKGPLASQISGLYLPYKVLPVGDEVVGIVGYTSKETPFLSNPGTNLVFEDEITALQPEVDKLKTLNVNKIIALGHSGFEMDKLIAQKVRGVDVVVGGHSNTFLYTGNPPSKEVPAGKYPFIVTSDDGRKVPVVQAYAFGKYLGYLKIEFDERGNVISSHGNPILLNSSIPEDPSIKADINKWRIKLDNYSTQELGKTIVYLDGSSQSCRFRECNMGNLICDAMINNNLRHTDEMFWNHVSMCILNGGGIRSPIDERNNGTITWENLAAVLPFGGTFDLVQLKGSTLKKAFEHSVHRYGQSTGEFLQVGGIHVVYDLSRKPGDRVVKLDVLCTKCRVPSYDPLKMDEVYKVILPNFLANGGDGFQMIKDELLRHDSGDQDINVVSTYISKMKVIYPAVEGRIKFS
Procedure: (§3) Anti-CD73 antibodies are tested for their binding to each mutant by flow cytometry. A first experiment is performed to determine antibodies that lose their binding to one or several mutants at one concentration. To confirm a loss of binding, titration of antibodies is done on antibodies for which binding seemed to be affected by the CD73 mutations (1-0.1-0.01-0.001 μg/ml).

human CD73 mutant 2 = target: T4, human CD73 mutant 2 (human, UniProt P21589 27-549); test: flow cytometry titration on HEK-293T cells transfected with CD73 mutant 2
T4 construct: Transfected in HEK-293T cells; The cell prints A1071, read as A107I
T4 chain: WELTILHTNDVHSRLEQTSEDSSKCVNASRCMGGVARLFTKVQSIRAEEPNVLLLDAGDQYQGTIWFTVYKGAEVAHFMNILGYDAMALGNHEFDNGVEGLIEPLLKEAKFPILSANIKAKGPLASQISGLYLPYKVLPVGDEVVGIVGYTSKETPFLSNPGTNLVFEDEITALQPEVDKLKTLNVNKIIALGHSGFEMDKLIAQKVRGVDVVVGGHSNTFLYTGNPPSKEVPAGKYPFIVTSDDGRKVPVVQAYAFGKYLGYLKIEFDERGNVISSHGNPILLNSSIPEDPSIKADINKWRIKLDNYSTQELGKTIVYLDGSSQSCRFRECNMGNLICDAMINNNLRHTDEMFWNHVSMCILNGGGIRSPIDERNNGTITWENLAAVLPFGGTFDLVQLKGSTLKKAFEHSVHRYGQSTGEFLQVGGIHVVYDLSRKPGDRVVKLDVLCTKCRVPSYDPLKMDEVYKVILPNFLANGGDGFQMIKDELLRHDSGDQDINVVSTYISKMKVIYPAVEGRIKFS
Procedure: as §3

B1: antibody 7H10 (antibody, human IgG1, V domains shown)
VH: DVQLQESGPGLVKPSQSLSLTCTVTGYSITSDYAWNWIRQFPGNKLEWMGYIIYSGSTSYNPSLNSRISITRDTSKNQFFLQLNSVTTEDTATYYCAREAYLYFDYWGQGTTLTVSS
VL: DIQMTQTTSSLSASLGDRVTISCRASQDINNYLNWYQQKPDGTVKLLIYYTSRLHSGVPSRFSGSGSGTDYSLTISNLEREDVATYFCQQGNTLPWTFGGGTKLEIK
EC50 [1]: 0.335 µg/mL
binding result [2]: no binding (tested: 10 µg/ml)
EC50 (read off the curve) [3]: ~0.2 µg/mL
binding result (human CD73 mutant 2): no binding (tested: 10 µg/ml)
